From patent EP1638605B1 (Raptor Pharmaceutical, Inc., dated 2014)
One block for each molecule: values may come before it.

Tests used:
[1] = target: mLRP/LRPTmMegT mini-receptor (fourth ligand binding and transmembrane domains of LRP1 with the C-terminal cytoplasmic tail of megalin) on MDCK cells (UniProt Q07954); assay: cell-based or functional assay
[2] = target: T1, recombinant human alpha-L-iduronidase (Aldurazyme) (human, UniProt P35475 27-653, limits assumed); assay: ligand blot, sLRP2 (1 µg/well) on membrane, antibody detection
T1 construct: also called rhIDU; Recombinant human IDU
T1 sequence (looked up): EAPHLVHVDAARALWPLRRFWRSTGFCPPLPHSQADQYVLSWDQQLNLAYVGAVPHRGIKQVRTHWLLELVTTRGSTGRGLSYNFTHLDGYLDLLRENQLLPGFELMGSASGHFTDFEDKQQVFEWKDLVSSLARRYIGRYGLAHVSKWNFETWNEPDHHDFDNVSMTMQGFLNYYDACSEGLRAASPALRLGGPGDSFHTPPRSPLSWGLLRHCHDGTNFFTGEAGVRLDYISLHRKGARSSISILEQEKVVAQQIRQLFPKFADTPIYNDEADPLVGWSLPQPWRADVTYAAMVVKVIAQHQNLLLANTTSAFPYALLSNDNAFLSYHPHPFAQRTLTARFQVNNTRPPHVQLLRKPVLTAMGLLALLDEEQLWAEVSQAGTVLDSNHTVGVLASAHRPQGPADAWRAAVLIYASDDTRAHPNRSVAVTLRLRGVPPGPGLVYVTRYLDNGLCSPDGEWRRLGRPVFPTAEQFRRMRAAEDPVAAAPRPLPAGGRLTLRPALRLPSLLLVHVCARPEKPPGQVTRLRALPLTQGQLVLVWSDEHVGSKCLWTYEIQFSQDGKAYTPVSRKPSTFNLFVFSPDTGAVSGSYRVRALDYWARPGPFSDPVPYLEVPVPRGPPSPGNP

Sequence of mLRP/LRPTmMegT mini-receptor (fourth ligand binding and transmembrane domains of LRP1 with the C-terminal cytoplasmic tail of megalin) on MDCK cells (Q07954 3293-4444): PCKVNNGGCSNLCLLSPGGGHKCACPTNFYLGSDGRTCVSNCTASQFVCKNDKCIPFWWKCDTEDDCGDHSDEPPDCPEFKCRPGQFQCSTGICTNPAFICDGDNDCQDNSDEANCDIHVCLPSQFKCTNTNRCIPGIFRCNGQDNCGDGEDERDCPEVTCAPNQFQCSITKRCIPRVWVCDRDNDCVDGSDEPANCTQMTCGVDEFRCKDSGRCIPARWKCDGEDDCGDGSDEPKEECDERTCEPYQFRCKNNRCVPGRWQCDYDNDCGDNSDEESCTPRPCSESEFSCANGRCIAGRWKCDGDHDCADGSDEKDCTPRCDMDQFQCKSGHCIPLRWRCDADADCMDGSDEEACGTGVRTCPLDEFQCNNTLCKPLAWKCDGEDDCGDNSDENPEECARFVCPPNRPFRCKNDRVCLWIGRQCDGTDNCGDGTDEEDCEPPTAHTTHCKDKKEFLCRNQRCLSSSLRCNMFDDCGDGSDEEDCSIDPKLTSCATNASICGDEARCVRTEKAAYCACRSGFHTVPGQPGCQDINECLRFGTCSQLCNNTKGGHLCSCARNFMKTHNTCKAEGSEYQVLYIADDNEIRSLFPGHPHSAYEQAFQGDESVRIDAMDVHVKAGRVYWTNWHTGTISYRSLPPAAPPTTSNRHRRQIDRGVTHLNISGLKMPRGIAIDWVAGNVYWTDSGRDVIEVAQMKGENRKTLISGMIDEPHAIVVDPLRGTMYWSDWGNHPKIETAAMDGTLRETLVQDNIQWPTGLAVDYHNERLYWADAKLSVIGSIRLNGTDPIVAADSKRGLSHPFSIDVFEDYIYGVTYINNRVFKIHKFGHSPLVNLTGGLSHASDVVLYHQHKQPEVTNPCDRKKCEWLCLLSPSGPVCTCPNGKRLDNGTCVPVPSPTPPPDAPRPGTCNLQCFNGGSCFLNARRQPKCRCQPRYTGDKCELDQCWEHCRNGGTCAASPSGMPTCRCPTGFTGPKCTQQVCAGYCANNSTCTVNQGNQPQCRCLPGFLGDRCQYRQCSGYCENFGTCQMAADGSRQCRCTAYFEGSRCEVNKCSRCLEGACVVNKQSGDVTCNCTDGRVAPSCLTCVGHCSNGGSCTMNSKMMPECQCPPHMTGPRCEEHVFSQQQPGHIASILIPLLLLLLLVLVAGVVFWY

apical-to-basolateral permeability coefficient of 125I-RAP across MEGt-transfected MDCK monolayers with excess unlabeled RAP at 2 µg/ml [1]: 6.3 ×10⁻⁶ cm/s | apical-to-basolateral permeability coefficient of 125I-RAP across MEGt-transfected MDCK monolayers, 60 min [1]: 18.1 ×10⁻⁶ cm/s | ratio of apical-to-basolateral to basolateral-to-apical permeability coefficient of 125I-RAP in MEGt-transfected MDCK cells [1]: 460 fold
Molecule: receptor-associated protein (RAP) (ligand)

binding result [2]: no binding
B1: sLRP2, the entire second ligand-binding domain of human LRP1 (recombinant) (receptor, UniProt Q07954 806-1183, looked up)
chain: KCRVNNGGCSSLCLATPGSRQCACAEDQVLDADGVTCLANPSYVPPPQCQPGEFACANSRCIQERWKCDGDNDCLDNSDEAPALCHQHTCPSDRFKCENNRCIPNRWLCDGDNDCGNSEDESNATCSARTCPPNQFSCASGRCIPISWTCDLDDDCGDRSDESASCAYPTCFPLTQFTCNNGRCININWRCDNDNDCGDNSDEAGCSHSCSSTQFKCNSGRCIPEHWTCDGDNDCGDYSDETHANCTNQATRPPGGCHTDEFQCRLDGLCIPLRWRCDGDTDCMDSSDEKSCEGVTHVCDPSVKFGCKDSARCISKAWVCDGDNDCEDNSDEENCESLACRPPSHPCANNTSVCLPPDKLCDGNDDCGDGSDEGELCD
notes: also called immobilized LRP
